# Source: publication PMC11070986 (Nature, 2024)
# B1: human VMAT1(ΔL1/2) (natural protein, UniProt P54219 1-525, looked up)
# chain: MLRTILDAPQRLLKEGRASRQLVLVVVFVALLLDNMLFTVVVPIVPTFLYDMEFKEVNSSLHLGHAGSNCLQGTGFLEEEITRVGVLFASKAVMQLLVNPFVGPLTNRIGYHIPMFAGFVIMFLSTVMFAFSGTYTLLFVARTLQGIGSSFSSVAGLGMLASVYTDDHERGRAMGTALGGLALGLLVGAPFGSVMYEFVGKSAPFLILAFLALLDGALQLCILQPSKVSPESAKGTPLFMLLKDPYILVAAGSICFANMGVAILEPTLPIWMMQTMCSPKWQLGLAFLPASVSYLIGTNLFGVLANKMGRWLCSLIGMLVVGTSLLCVPLAHNIFGLIGPNAGLGLAIGMVDSSMMPIMGHLVDLRHTSVYGSVYAIADVAFCMGFAIGPSTGGAIVKAIGFPWLMVITGVINIVYAPLCYYLRSPPAKEEKLAILSQDCPMETRMYATQKPTKEFPLGEDSDEEPDHEE
# Molecular target: the molecule itself
# Assay: cryo-EM structure
protein,measurement,value
B1,stoichiometry N,2
